Values quoted from earlier work, collected in paper PMC7179994.
Read-outs that look alike come from different tables or passages of the source.

Columns and labels:
[1] = biological target: VE-cadherin (Homo sapiens) (UniProt P33151)
[2] = biological target: VLDL receptor (Homo sapiens) (UniProt P98155)
[3] = biological target: VE-cadherin (Homo sapiens) (UniProt P33151); remark: listed apart in the source

Chain of VE-cadherin (Homo sapiens) (P33151 48-599): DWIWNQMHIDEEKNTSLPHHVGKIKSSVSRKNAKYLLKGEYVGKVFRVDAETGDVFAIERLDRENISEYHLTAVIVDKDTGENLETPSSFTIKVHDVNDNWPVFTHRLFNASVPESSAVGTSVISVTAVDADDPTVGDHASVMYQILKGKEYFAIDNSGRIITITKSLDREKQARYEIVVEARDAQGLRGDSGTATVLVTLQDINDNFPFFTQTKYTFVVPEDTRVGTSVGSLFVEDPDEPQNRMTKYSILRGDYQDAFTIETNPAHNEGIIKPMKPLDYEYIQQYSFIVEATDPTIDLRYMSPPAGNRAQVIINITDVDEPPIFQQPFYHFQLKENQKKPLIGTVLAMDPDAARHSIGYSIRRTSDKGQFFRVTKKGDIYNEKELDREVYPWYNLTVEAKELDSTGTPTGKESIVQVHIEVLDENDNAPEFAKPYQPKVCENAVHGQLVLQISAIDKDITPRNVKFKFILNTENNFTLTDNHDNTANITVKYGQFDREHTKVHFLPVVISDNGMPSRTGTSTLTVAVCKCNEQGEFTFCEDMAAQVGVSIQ
Chain of fibrin β15–42 15-42 (P02675 15-42): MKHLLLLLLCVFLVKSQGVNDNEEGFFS
Chain of (β15–44)2 15-44 (P02675 15-44): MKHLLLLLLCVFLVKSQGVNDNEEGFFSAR

Substance: (β15–44)2 15-44 (from UniProt P02675)
- Kd [1]: 715 nM

Substance: fibrin (from UniProt P02671)
- Kd [2]: 9.2 nM

Substance: fibrin β15–42 15-42 (from UniProt P02675)
- Kd [3]: 267 µM
